The source of these data is publication PMC4893494, “Identification and Characterization of Five BAHD Acyltransferases Involved in Hydroxycinnamoyl Ester Metabolism in Chicory” (Frontiers in Plant Science, 2016).

This series deals with O=C(O)C1=C[C@@H](O)[C@@H](O)[C@H](O)C1. As to the kind of experiment: HPLC-UV of product, Michaelis-Menten. Format: biochemical, Cichorium intybus. To be noted: acyl acceptor varied, saturating p-coumaroyl-CoA (800 μM), 50 mM phosphate pH 7.1, room temperature. From the text:
HPLC-UV of product, Michaelis-Menten on HCT2 (CiHCT2)

Usually Km stands for the concentration of substrate that gives half-maximal velocity. One may read the Vmax as the rate approached at saturating substrate. Regarding HCT2 (CiHCT2) (Cichorium intybus), the Km was determined as 802 ± 63 µM, the Vmax was 18.2 µmol/min/mg and the Vmax/Km stood at 22800 µL/min/mg.
